Measured values reported in PMC6764996.

Columns and labels:
[1] = biological target: full-length human DNA polymerase θ (Polθ) (human) (UniProt O75417); experiment: negative staining electron microscopy (single particles); 200 nM protein without ssDNA; 25 mM Tris-HCl pH 8.8, 1 mM DTT, 10 mM MgCl2, 2 mM ATP; 37 °C, 30 min; applied to lacey carbon grids, 2% uranyl acetate
[2] = biological target: full-length human DNA polymerase θ (Polθ) (human) (UniProt O75417); experiment: scanning force microscopy (volume measurements); 10 nM protein with 20 nM 26 nt ssDNA; 25 mM Tris-HCl pH 8.8, 30 mM NaCl, 10 mM MgCl2, 2 mM ATP, 0.01% NP-40, 1 mM DTT; 37 °C, 30 min; deposited on mica; volumes normalised to the monomer's volume
[3] = biological target: full-length human DNA polymerase θ (Polθ) (human) (UniProt O75417); experiment: negative staining electron microscopy (single particles); 200 nM protein pre-incubated with 2 μM 26 nt ssDNA; 25 mM Tris-HCl pH 8.8, 1 mM DTT, 10 mM MgCl2, 2 mM ATP; 37 °C, 30 min; 2% uranyl acetate

percent of Polθ as large (> 1000 Å) multimers (without ssDNA) [1]: 3%
percent of Polθ as tetramers or larger (with ssDNA) [2]: 62%
fold increase in large > 1000 Å multimers with ssDNA against without ssDNA [3]: 9 fold
Substance: full-length human DNA polymerase θ (Polθ), O75417 1-2590
